Experimental findings from paper doi:10.1101/2023.07.25.550448 (bioRxiv, 2023) are described below.

“And” between values parts separate entries of the source, which are not always exact repeats. Equal values may be shown once. No end group written: not given here. *: point of attachment. Biotin = O=C1N[C@H]2[C@H](CS[C@H]2CCCCC(=O)*)N1

Experiment [1] addresses T1, His6-p97 WT (human, UniProt P55072 1-806). As to the kind of experiment: SPR.
Experiment [2] has as its target T1, His6-p97 WT. As to the kind of experiment: mass photometry.
Experiment [3] deals with T1, His6-p97 WT. As to the kind of experiment: pull-down.

T1 sequence (P55072 whole entry): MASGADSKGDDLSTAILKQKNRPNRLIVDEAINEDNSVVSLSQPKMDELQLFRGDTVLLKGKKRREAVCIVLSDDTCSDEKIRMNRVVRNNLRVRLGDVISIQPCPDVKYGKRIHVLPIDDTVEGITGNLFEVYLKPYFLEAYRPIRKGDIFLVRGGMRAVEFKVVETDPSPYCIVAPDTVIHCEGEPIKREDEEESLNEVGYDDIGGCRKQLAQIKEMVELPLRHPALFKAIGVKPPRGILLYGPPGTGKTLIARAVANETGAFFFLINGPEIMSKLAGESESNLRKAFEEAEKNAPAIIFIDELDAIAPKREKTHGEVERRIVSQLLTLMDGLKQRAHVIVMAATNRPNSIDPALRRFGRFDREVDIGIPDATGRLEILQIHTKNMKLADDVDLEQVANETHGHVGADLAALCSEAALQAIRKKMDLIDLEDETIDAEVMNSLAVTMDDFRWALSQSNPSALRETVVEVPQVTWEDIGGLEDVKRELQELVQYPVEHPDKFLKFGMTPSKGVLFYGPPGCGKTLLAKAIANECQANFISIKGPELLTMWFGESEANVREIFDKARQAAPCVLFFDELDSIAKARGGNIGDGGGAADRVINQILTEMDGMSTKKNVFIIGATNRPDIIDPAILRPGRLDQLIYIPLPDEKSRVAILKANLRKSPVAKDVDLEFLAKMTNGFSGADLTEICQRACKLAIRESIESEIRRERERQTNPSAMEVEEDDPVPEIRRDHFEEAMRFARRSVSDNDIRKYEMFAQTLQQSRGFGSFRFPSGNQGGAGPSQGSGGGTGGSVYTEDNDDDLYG

B1: Strep-HA-VCF1 WT (natural protein)
chain: not shown
The Kd is the equilibrium constant for the complex coming apart. B1: the Kd in the experiment with His6-p97 WT [1] was around 10 nM. In addition, the “stoichiometry N” value in the experiment with His6-p97 WT [2] was 2 VCF1 molecules per p97 hexamer and 3 VCF1 molecules per p97 hexamer.

B2: VIM peptide (SVIP, aa14-39) (peptide)
peptide: Biotin-PTPDLEEKRAKLAEAAERRQKEAAS
As for B2, in the experiment with His6-p97 WT [3], the binding result was “binds”.

B3: VBM peptide (ATXN3, aa275-295) (peptide)
peptide: Biotin-NLTSEELRKRREAYFEKQQQK
Consider B3, for which the binding result with His6-p97 WT [3] is “binds”.
